This is an account of results in patent publication US20260209316A1 (US Dept. of Health and Human Services, published 2026).

For experiment [1], the target named is T1, full-length Sudan GP (GPFL) (Sudan virus (SUDV), UniProt Q7T9D9 33-650).
T1 construct: also called Sudan GPFL; GP(S)FL
T1 sequence: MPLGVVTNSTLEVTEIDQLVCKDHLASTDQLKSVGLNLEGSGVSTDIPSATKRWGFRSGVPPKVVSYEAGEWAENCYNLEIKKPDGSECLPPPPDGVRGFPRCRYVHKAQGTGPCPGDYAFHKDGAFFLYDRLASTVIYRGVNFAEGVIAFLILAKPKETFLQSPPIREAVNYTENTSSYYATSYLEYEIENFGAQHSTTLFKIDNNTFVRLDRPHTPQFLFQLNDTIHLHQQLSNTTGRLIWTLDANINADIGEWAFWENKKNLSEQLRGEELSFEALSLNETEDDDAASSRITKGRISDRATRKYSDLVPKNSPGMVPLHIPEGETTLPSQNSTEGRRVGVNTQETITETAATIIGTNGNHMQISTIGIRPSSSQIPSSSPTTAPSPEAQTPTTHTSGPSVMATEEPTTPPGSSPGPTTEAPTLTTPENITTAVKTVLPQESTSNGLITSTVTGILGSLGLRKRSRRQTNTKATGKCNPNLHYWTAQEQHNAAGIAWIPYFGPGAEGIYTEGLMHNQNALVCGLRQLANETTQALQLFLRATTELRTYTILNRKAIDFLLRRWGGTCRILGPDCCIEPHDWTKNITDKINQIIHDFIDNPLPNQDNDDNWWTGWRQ
In words: ELISA on coated GP. (In an ELISA, binding on a coated surface is turned into a signal by an enzyme label.)

For experiment [2], the target named is T1, full-length Sudan GP (GPFL). In words: ELISA on coated GP. The source holds these as a separate data set.
For experiment [3], the target named is T2, SUDV GP on pseudotyped lentiviral vector (Sudan virus (SUDV), UniProt Q7T9D9 33-676).
T2 sequence: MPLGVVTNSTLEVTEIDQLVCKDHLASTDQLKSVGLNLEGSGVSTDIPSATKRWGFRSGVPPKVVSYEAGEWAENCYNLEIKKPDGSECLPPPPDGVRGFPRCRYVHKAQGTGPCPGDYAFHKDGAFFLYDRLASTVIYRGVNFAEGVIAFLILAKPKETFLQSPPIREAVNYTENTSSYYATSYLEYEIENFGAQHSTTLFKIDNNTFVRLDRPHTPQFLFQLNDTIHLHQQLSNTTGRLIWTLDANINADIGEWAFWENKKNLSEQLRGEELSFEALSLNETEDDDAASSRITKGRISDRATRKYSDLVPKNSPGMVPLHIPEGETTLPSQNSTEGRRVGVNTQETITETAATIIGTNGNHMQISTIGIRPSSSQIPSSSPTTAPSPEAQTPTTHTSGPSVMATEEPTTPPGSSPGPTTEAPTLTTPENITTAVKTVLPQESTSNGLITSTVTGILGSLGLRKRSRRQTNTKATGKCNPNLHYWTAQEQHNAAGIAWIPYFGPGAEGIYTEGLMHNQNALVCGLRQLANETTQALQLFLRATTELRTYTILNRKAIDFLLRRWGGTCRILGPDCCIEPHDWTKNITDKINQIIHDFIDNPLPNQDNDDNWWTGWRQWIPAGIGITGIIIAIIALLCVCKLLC
Nature of the experiment: cell-based or functional assay.

Experiment [4] addresses T2, SUDV GP on pseudotyped lentiviral vector. In words: cell-based or functional assay. The source holds these as a separate data set.
Experiment [5] deals with T3, full-length Zaire GP (GPFL) (Ebola (Zaire) virus (EBOV), UniProt Q05320 33-632).
T3 construct: also called Zaire GPFL; GP(Z)FL
T3 sequence: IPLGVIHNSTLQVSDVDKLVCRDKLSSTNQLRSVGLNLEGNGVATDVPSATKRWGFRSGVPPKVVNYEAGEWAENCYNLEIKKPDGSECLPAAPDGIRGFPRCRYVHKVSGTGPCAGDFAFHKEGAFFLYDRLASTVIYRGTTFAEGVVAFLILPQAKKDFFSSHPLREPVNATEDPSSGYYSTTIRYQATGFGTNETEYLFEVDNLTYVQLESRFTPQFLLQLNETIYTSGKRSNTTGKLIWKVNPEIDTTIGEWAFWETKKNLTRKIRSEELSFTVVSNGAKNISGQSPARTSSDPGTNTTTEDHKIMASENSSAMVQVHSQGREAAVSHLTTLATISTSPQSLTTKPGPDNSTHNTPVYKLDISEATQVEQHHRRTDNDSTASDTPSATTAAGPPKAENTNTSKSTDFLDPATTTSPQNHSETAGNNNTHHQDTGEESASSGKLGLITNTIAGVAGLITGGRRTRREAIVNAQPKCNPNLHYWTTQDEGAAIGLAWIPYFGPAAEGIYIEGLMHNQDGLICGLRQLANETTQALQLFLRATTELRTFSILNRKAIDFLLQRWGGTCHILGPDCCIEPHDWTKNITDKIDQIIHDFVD
Nature of the experiment: ELISA on coated GP.

For experiment [6], the target named is T3, full-length Zaire GP (GPFL). Nature of the experiment: ELISA on coated GP. This is another data set of the same source.
For experiment [7], the target named is T4, EBOV GP on pseudotyped lentiviral vector (Ebola (Zaire) virus (EBOV), UniProt Q05320 33-676).
T4 sequence: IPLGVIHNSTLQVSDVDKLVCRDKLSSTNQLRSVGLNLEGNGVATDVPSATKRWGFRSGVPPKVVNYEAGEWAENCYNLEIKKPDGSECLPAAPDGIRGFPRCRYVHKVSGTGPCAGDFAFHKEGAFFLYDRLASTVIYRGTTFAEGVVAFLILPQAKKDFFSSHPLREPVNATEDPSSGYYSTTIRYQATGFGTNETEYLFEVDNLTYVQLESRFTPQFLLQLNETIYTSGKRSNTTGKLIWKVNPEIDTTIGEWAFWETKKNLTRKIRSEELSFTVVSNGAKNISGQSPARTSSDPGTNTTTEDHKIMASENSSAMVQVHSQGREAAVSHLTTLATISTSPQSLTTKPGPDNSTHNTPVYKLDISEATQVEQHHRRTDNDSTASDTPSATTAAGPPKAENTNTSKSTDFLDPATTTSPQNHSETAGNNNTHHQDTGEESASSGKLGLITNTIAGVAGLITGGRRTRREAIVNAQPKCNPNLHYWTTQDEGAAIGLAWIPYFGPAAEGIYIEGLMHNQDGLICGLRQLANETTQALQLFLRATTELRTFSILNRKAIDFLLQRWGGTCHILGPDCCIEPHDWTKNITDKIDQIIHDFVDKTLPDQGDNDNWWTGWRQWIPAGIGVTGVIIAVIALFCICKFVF
In words: cell-based or functional assay.

For experiment [8], the target named is T4, EBOV GP on pseudotyped lentiviral vector. Nature of the experiment: cell-based or functional assay. This is another data set of the same source.
For experiment [9], the target named is T1, full-length Sudan GP (GPFL). Nature of the experiment: BLI, Fab, pH 5.3.
For experiment [10] the target is unchanged. Nature of the experiment: BLI, Fab, pH 7.4. In general terms: Biolayer interferometry detects binding as a change in optical thickness at a sensor tip.
For experiment [11], the target named is T3, full-length Zaire GP (GPFL). In words: BLI, Fab, pH 7.4.
The target of experiment [12] is T1, full-length Sudan GP (GPFL). Nature of the experiment: BLI, Fab, pH 5.3. This is another data set of the same source.
Experiment [13] shares this target. Nature of the experiment: BLI, Fab, pH 7.4. This is another data set of the same source.

Residue numbers refer to the chain shown, from its start. Where two headings read alike, the source gives them in different places.

B1: antibody 16F6 (antibody, V domains shown)
VH: EVQLVESGGGLVTPGGSLKLSCAASGFAFNYYDMFWVRQNTEKRLEWVAYINSGGGNTYYPDTVKGRFTISRDNAKKTLFLQMSSLRSEDTAMYYCARQLYGNSFFDYWGQGTSLTVSA
VL: DIVMTQSHKFMSTSVGDRVTITCKASQDVTTAVAWYQQKPGHSPKLLIYWASTRHTGVPDRFTGSGSGTDFTLTLNSVQAEDLALYYCQQHYSTPLTFGAGTKLELK
What is called EC50 is the concentration at which the effect is half-maximal. A low value points to an effect from little substance. Regarding B1, the EC50 in experiment [1] was found to be 0.068 µg/mL; in experiment [2] it was 0.16 µg/mL. The “IC50, microneutralization of GP-pseudotyped lentiviral vector on HEK293 cells” value (shortened to “IC50, microneutralization”) in experiment [3] worked out at 0.068 µg/mL; in [4], 0.04 µg/mL.

B2: antibody mAb114 (antibody, V domains shown)
VH: EVQLVESGGGLIQPGGSLRLSCAASGFALRMYDMHWVRQTIDKRLEWVSAVGPSGDTYYADSVKGRFAVSRENAKNSLSLQMNSLTAGDTAIYYCVRSDRGVAGLFDSWGQGILVTVSS
VL: DIQMTQSPSSLSASVGDRITITCRASQAFDNYVAWYQQRPGKVPKLLISAASALHAGVPSRFSGSGSGTHFTLTISSLQPEDVATYYCQNYNSAPLTFGGGTKVEIK
Take B2: the EC50 in [5] was found to be 0.0239 µg/mL; in experiment [6], 0.02 µg/mL. The “IC50, microneutralization” value in experiment [7] is 0.152 µg/mL; in experiment [8] it was 0.18 µg/mL.

B3: Fab generated from 380L (Fab, V domains shown)
VH: EVQLVESGGGLVQPGGSLTLSCAASGFTFGDYVMHWVRQVPGRGLEWLSAVSWSGYTTYSADSVKGRFTISRDNAKNSLYLQMSRLGTADTGLYYCVTLIGAIGIRDSFDAWGRGVLVTVSS
VL: QSVLTQPPSMSGAPGQRVTVSCTGSSSNIGAGNYVQWYQQLPGTAPKVLIYQTDKRPSGISDRFSGSKSGTSASLTISGLQSEDEADYYCQVYDSSLNGWVFGGGTRLTVL
notes: also called 380L Fab
For orientation: Kd means the free concentration of one partner at which half of the binding sites on the other are occupied at equilibrium, for simple one-to-one binding. Read a high Kd as weaker binding. The koff is the rate constant with which the complex falls apart. Low values mean a long-lived complex, high ones a short-lived complex. As a reminder, the kon is the second-order rate constant of association. A higher kon goes with faster complex formation. In [9], B3 gave a Kd of 3.87 nM, an off-rate constant (koff) of 0.000326 s⁻¹ and a kon of 84200 M⁻¹ s⁻¹. In experiment [10], this molecule had a Kd of 2.85 nM, a koff of 0.00029 s⁻¹ and a kon of 101000 M⁻¹ s⁻¹. In [11], the Kd was 19.8 nM, the koff came to 0.00148 s⁻¹ and the kon was determined as 63000 M⁻¹ s⁻¹.

B4: antibody 316L (antibody, V domains shown)
VH: EERLVESGGGLVQPGGSLRLSCAASGFTFGDYAMHWVRQVPGKSLEWLSGISWSGYTTYSADSVKGRFTISRDNAKNSLYLQMNRLRPEDTGLYYCVTLIGAIGIKDSLDVWGRGVLVTVSS
VL: QSVLTQPPSVSGAPGQRVTVSCSGSSSNIGAGNYVQWYQQLPGTAPKVLIYQTEKRPSGTSDRFSGSKSDTSASLTINGLQSEDEADYYCQVYDSNLNGWVFGGGTRLTVLG
notes: also called 316L mAb; mAb 316L
Consider B4, for which the EC50 in experiment [1] was determined as 0.0175 µg/mL; in experiment [5], 0.0441 µg/mL. In addition, the results for the “IC50, microneutralization” value in experiment [3] and in [7] were 0.284 µg/mL and 1.77 µg/mL, respectively.

B5: Fab generated from 316L (Fab, V domains shown)
VH: B4 VH
VL: B3 VL with M10V, T23S, D54E, I60T, G70D, S78N, S96N
notes: also called 316L Fab
As for B5, the Kd in [9] was found to be 1.26 nM; in experiment [10], 1.16 nM; in experiment [11], 38.1 nM. For the same molecule, the koff in experiment [9] worked out at 0.000139 s⁻¹; in experiment [10], 0.000157 s⁻¹; in [11], 0.00263 s⁻¹. The kon stood at 110000 M⁻¹ s⁻¹ in experiment [9], 135000 M⁻¹ s⁻¹ in [10] and 69000 M⁻¹ s⁻¹ in experiment [11].

B6: Fab generated from 291S (Fab, V domains shown)
VH: QVQLQESGPGLVKPSQTLSLTCTVSGGSFSSGFYWSWIRQRPGKGLEWVGYTYYSGSTYYNPSLQSRVTISVDTSKNQFSLNLSSVTAADTAVYHCARADYGGLFDYWGQGILVTVSS
VL: QSVLTQPSSLSASPGASASLTCTLRSGINVGTYRIFWYQQKPGSPPQFLLRYNSDSDKQQGSGVPSRFSGSKDASANAGILLISGLQSEDEADYYCMIWHTSAWVFGGGTKLTVL
For the molecule B6, in [12], the Kd is 4.27 nM, the koff amounted to 0.00011 s⁻¹ and the kon was 25700 M⁻¹ s⁻¹. In experiment [13], this molecule showed a Kd of 2.97 nM, a koff of 0.000131 s⁻¹ and a kon of 44200 M⁻¹ s⁻¹.

B7: Fab generated from 545S (Fab, V domains shown)
VH: QVQLQESGPGLVKPSQTLSLTCTVSGGSISRAGSYWSWIRQHPGKGLEWIGYISYSGSTYYNPSLESRVTMSLDTSKSQFSLKLSSVTAADTAVYYCAREDRSGFYGLDVWGQGTTVTVSS
VL: B6 VL with S17T, G31D, F36Y, F48Y, N53K, Q59H, E89A, T101S, S102G, L115Q
notes: also called 545S Fab
In experiment [12], B7 yielded a Kd of 1.97 nM, a koff of 0.000147 s⁻¹ and a kon of 74300 M⁻¹ s⁻¹. Besides, in experiment [13], binding was put at a Kd of 1.26 nM, the koff stood at 0.000125 s⁻¹ and the kon was found to be 99200 M⁻¹ s⁻¹.
